Data from patent US20020164640A1 (IMMUNEX, published 2002).

Target: T1, IRAK (UniProt P51617 1-712, limits assumed)
T1 construct: Overexpressed in HEK293 cells and detected by western blotting with anti-IRAK; No tag is stated; also called IL-1 receptor associated Kinase; IRAK1
Assay: co-immunoprecipitation from transfected HEK293 cells: anti-HA IP, anti-IRAK western blot
Procedure: HEK 293 cells were transfected with a 5 x NF-KB reporter gene plasmid and co-transfected with plasmids encoding MAL-1 of SEQ ID NO:2 or MyD88 and increasing concentrations of IRAK. Luciferase reporter gene activity was measured. HEK293 cells were transfected with HA-MAL-1 and IRAK and the resulting overexpressed proteins were immunoprecipitated using an anti-HA antibody to isolate MAL-1 complexes and interactions were detected by western blotting to detect anti-IRAK. IRAK could not be detected in the anti-HA-MAL immunoprecipitates. HEK293 cells were transfected with AU-1-MyD88 and IRAK and the resulting overexpressed proteins were immunoprecipitated using an anti-AU1 antibody to isolate MyD88 complexes and interactions were detected by western blotting for anti-IRAK. IRAK was detected in the anti-Aul-MyD88 immunoprecipitates.

T1 sequence (P51617 whole entry): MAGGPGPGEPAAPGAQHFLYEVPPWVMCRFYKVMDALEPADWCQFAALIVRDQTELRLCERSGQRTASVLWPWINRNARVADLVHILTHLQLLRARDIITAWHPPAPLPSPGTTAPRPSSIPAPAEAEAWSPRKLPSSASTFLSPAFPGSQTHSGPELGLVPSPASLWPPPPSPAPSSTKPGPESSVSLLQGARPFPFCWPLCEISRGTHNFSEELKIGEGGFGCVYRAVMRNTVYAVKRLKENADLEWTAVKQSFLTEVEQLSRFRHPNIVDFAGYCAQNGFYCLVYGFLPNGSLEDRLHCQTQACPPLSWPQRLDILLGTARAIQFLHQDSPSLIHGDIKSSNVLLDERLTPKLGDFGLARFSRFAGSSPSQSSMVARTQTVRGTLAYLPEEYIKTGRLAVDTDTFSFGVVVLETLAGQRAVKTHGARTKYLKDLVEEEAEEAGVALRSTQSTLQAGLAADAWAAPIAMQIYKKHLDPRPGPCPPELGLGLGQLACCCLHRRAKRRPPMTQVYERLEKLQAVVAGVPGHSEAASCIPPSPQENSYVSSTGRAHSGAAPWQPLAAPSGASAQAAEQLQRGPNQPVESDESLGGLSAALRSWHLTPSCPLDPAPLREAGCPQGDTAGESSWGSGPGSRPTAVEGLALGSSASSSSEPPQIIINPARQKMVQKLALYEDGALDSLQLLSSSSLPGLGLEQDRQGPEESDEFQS

B1: full-length labelled MAL-1 (HA-MAL-1) (other, not shown: small tags and cut ends)
chain: MASSTSLPAPGSRPKKPLGKMADWFRQTLLKKPKKRPNSPESTSSDASQPTSQDNPLPPSLSSVTSPSLPPTHASDSGSSRWSKDYDVCVCHSEEDLVAAQDLVSYLEGSTASLRCFLQLRDATPGGAIVSELCQALSSSHCRVLLITPGFLQDPWCKYQMLQALTEAPGAEGCTIPLLSGLSRAAYPPELRFMYYVDGRGPDGGFRQVKEAVMRCKLLQEGEGERDSATVSDLL
notes: Overexpressed in HEK293 cells; also called tagged MAL-1
B1: no binding.
